Test results as given in US20250197501A1 (DEVELOPMENT CENTER FOR BIOTECHNOLOGY, published 2025).
Residue numbers refer to the chain shown, from its start. Like-named read-outs stand apart in the source and are kept apart here.

What was measured:
[1] = target: T1, recombinant human B7-H3-mFc protein (human, UniProt Q5ZPR3 29-466); assay: ELISA, plate coated with human B7-H3-mFc
T1 construct: also called B7-H3 protein; not shown: mouse Fc domain
T1 sequence: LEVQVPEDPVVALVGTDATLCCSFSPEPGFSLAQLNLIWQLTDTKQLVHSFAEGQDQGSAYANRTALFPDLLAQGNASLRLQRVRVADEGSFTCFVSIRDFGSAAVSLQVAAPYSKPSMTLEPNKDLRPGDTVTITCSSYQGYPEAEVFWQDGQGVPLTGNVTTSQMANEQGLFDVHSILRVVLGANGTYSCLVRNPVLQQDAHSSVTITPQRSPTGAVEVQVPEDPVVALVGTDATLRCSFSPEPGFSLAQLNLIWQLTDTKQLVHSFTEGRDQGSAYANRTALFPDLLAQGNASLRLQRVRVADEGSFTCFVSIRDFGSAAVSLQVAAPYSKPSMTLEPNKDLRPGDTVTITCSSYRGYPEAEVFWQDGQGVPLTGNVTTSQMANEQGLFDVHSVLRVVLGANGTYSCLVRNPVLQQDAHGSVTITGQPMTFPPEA
Protocol: (§1) The binding affinity of full-length antibodies to human, monkey, mouse and rat B7-H3 were evaluated by ELISA. In brief, 96-well plate was coated with B7-H3 proteins (i.e., human B7-H3-mFc protein, cynomolgus monkey B7-H3 protein or rat B7-H3 Fc chimeric protein) in coating buffer and incubated overnight at 4° C. After washing with PBS for 3 times, the 96-well plate was inverted and tapped on clean absorbent papers to remove excess liquid. The blocking buffer (PBS containing 1% bovine serum albumin (BSA) was added to the wells, followed by incubating the plate at 37° C. for 1 hour with gentle continual shaking. After washing with PBS for 3 times, serial dilutions of anti-B7-H3 antibody (in PBS containing 1% BSA) were added into the wells. The plate was incubated at 37° C. for 1 hour with gentle continual shaking. After washing with PBS for 3 times, the secondary antibody (peroxidase-conjugated AffiniPure™ F(ab′)₂ fragment goat anti-human IgG (H+L)) was added into the wells and then incubated at 37° C. for 1 hour with gentle continual shaking. The plate was washed with PBS for 3 times, and the TMB substrate was added into each well and incubated at room temperature for 5 minutes, avoiding from light. 1 N HCl stop solution was added into each well and the absorbance was measured at 450/650 nm. The binding affinity value (EC50) of antibodies was determined by software.

[2] = target: T2, recombinant cynomolgus monkey B7-H3 protein (cynomolgus monkey, UniProt Q7TPB4 26-248 (rat entry)); assay: ELISA, plate coated with cynomolgus monkey B7-H3
T2 chain: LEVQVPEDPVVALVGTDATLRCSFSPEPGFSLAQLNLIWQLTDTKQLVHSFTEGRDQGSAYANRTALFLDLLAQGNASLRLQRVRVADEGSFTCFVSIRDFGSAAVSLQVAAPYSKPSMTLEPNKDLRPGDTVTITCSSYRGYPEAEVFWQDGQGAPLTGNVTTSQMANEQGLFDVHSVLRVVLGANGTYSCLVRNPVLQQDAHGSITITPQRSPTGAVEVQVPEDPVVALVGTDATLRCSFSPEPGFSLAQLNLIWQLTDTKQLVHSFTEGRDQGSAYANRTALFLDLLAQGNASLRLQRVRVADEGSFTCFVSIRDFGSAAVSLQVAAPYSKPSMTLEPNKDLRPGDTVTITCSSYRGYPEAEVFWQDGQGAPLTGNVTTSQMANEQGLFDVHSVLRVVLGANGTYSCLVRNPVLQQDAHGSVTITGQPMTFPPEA

[3] = target: T3, human B7-H3 on the surface of human cancer cells (human, UniProt Q5ZPR3 29-534); assay: cell-based or functional assay
T3 sequence: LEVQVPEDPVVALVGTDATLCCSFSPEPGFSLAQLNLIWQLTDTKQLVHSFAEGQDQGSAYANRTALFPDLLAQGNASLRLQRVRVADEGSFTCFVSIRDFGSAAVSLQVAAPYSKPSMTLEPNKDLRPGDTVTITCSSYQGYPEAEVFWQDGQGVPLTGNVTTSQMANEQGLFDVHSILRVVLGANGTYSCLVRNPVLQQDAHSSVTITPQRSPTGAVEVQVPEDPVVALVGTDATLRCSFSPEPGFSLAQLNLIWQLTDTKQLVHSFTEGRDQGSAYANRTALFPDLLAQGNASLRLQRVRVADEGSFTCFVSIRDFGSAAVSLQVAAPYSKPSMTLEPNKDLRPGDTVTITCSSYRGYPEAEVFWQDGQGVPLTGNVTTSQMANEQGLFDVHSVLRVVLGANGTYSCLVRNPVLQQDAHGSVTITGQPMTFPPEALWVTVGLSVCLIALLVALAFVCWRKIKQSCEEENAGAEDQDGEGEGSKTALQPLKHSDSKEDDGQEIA

[4] = target: T1, recombinant human B7-H3-mFc protein; assay: SPR; MMAE conjugate, not parental mAb
Protocol: The binding kinetics of the present antibodies against human B7-H3 were determined by Biacore™ assay. Carboxymethylated dextran biosensor chips (CM5) were activated according to the supplier's instructions. Anti-human IgG (Fc) was diluted with immobilization buffer before injection at a flow rate of 10 μL/minute to achieve approximately 10,000 response units (RU) of coupled protein followed by the injection of 1 M ethanolamine to block unreacted groups. Human anti-B7-H3 antibodies were captured on anti-human IgG chip. For kinetics measurements, two-fold serial dilutions of human B7-H3-mFc protein (from 40 nM to 0.3125 nM) were injected in HBS-EP⁺ Biacore™ running buffer provided by the manufacturer at a flow rate of 30 μL/min.

[5] = target: T3, human B7-H3 on the surface of human …; assay: cell-based or functional assay; remark: listed apart in the source
[6] = target: T4, recombinant rat B7-H3-mFc protein (rat, UniProt Q7TPB4 29-244); assay: ELISA, plate coated with rat B7-H3 mFc
T4 construct: also called rat B7-H3 mFc chimeric protein; rat B7-H3 Fc chimeric protein; not shown: mouse Fc domain
T4 sequence: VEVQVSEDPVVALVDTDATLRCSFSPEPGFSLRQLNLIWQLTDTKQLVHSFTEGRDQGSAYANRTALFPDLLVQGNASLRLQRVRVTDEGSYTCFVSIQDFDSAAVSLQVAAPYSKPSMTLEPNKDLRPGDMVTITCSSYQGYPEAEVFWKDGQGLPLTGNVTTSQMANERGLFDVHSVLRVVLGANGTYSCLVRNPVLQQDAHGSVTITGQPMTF
Protocol: as §1

[7] = target: T5, recombinant mouse B7-H3-mFc protein (mouse, UniProt Q8VE98 29-244); assay: ELISA, plate coated with mouse B7-H3 mFc
T5 construct: not shown: mouse Fc domain
T5 sequence: T4 sequence with R33A, A62S, D131N, L156V, M214L
Protocol: as §1

[8] = target: T1, recombinant human B7-H3-mFc protein; assay: SPR (Biacore), antibody captured on anti-human IgG chip, B7-H3 protein injected
[9] = target: T4, recombinant rat B7-H3-mFc protein; assay: as above
[10] = target: T5, recombinant mouse B7-H3-mFc protein; assay: as above
B7-H1 = assay: ELISA on the named B7 family protein (Example 1.1), A450 readout; antibody concentration not given
B7-H2 = target: T6, B7-H2; assay: as above
T6 chain: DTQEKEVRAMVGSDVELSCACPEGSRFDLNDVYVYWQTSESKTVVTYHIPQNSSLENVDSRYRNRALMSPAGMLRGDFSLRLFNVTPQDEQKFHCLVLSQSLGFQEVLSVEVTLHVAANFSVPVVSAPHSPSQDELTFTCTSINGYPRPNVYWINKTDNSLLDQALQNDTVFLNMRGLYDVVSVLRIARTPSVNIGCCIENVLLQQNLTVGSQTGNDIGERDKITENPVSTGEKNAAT

B7-H4 = target: T7, B7-H4; assay: as above
T7 construct: Member of the group m9
T7 chain: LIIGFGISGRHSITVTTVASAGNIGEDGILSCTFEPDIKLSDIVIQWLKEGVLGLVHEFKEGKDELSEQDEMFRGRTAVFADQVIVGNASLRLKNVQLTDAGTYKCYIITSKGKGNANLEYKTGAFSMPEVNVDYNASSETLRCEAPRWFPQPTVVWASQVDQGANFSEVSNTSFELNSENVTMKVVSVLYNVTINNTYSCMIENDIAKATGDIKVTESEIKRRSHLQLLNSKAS

B7-H6 = target: T8, B7-H6; assay: as above
T8 chain: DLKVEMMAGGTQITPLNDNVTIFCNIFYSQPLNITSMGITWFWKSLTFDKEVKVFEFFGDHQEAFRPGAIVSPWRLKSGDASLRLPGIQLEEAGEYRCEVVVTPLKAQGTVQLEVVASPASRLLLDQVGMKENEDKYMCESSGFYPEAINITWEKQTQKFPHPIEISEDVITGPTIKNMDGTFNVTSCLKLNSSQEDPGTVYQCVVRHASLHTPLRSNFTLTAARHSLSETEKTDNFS

B7-H7 = target: T9, B7-H7; assay: as above
T9 chain: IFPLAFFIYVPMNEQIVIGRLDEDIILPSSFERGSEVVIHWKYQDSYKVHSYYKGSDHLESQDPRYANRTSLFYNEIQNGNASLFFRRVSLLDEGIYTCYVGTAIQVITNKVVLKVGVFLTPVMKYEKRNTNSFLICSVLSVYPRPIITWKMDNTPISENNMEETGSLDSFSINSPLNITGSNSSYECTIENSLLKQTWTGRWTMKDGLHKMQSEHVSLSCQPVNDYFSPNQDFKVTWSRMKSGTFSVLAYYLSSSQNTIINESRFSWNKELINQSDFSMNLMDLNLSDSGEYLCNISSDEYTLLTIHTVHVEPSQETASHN

B1: Ifinatamab (antibody, V domains shown)
VH: QVQLVQSGAEVKKPGSSVKVSCKASGYTFTNYVMHWVRQAPGQGLEWMGYINPYNDDVKYNEKFKGRVTITADESTSTAYMELSSLRSEDTAVYYCARWGYYGSPLYYFDYWGQGTLVTVSS
VL: EIVLTQSPATLSLSPGERATLSCRASSRLIYMHWYQQKPGQAPRPLIYATSNLASGIPARFSGSGSGTDFTLTISSLEPEDFAVYYCQQWNSNPPTFGQGTKVEIK
EC50 [1]: 0.0356 nM
EC50 [2]: 0.127 nM

B2: 91H06-MMAE (other)
VH: EVQLVESGGGLVQPGGSLRLSCAASGFTFSDYGMGWVRQAPGKGLEWVSSISWDSSSKEYADSVKGRFTISRDNSKNTLYLQMNSLRAEDTAVYYCARAWIAIIGGGAHFDYWGQGTLVTVSS
VL: DIQMTQSPSSLSASVGDRVTITCRASQSVSSHLAWYQQKPGKAPKLLIYLTSSLQSGVPSRFSGSGSGTDFTLTISSLQPEDFATYYCMQSKSLPFTFGQGTKVEIKR
modifications: MMAE linked through a PEG linker and a protease-sensitive valine-citrulline or glutamate-valine-citrulline linker to the azide-modified antibody (mAb-4 Azide, tri-mannosyl ADC platform); DAR between 3.5 and 3.9; attachment residue not stated
notes: also called the present ADC
Cytotoxicity activity (IC50, nM), CAL 27 cells [3]: < 50 nM
Cytotoxicity activity (IC50, nM), Detroit 562 cells [3]: < 50 nM
Cytotoxicity activity (IC50, nM), FaDu cells [3]: < 50 nM
Cytotoxicity activity (IC50, nM), LNCaP cells [3]: < 50 nM
Kd [4]: 0.24 nM
koff [4]: 0.000155 s⁻¹
kon [4]: 643000 M⁻¹ s⁻¹

B3: 91H06-MMAF (other)
VH: B2 VH
VL: B2 VL
modifications: MMAF linked through a PEG linker and a protease-sensitive valine-citrulline or glutamate-valine-citrulline linker to the azide-modified antibody (mAb-4 Azide, tri-mannosyl ADC platform); DAR between 3.5 and 3.9; attachment residue not stated
Cytotoxicity activity (IC50, nM), CAL 27 cells [5]: < 10 nM
Cytotoxicity activity (IC50, nM), Detroit 562 cells [5]: < 10 nM
Cytotoxicity activity (IC50, nM), FaDu cells [5]: < 10 nM
Cytotoxicity activity (IC50, nM), LNCaP cells [5]: < 10 nM

B4: mAb 91H06 (antibody, V domains shown)
VH: B2 VH
VL: B2 VL
notes: Fully human, detected with anti-human IgG; also called antibody 91H06; anti-B7-H3 monoclonal antibody 91H06
EC50 [6]: 0.0601 nM
EC50 [1]: 0.0186 nM
EC50 [7]: 0.0767 nM
Kd [8]: 0.227 nM
kon [9]: 178000 M⁻¹ s⁻¹
Kd [10]: 2.03 nM
binding result (B7-H1): no binding
binding result (B7-H2): no binding
binding result (B7-H4): no binding
binding result (B7-H6): no binding
binding result (B7-H7): no binding
